In US20100183614A1:

Experiments:
Experiment in all cases: cell-based or functional assay
[1] = target: Efb (S. aureus virulence factor) (Staphylococcus aureus) (UniProt A6QG59)
amyloid β peptide Aβ1-40 = amyloid β peptide Aβ1-40 (UniProt P05067)
[2] = target: gp120 of clade A HIV strains

Chain of Efb (S. aureus virulence factor) (Staphylococcus aureus) (A6QG59 30-165 limits assumed): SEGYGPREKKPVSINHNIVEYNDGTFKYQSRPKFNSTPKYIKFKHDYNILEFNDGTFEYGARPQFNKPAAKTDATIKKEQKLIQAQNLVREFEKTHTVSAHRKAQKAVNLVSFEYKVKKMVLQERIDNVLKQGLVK

B1: IgVL2-t 2E6 (protein)
chain: QSALTQPASVSGSPGQSITISCTGTSSDVGGYNYVSWYQQHPGKAPKLMISEVSNRPSGVSNRFSGSKSGNTASLTISGPQTEDEADYYCSSYTSSSTPVVFGGGTQLTVLGSSGGGGSGGGGSGGSALDIQLTQSPSSLPASVGDRVTITCRASQSISSYLNWYQQKPGKAPKLLIYAASSLQSGVPSRFSGSGSGTDFTLTISSLQPEDFATYYCQQSYSTHTFGQGTKLEIKRAAAHHHHHHGAAEQKLISEEDLNGAA
% Bt-Efb cleavage [1]: > 20% | 125I-Aβ1-40 hydrolyzing activity, specific activity, preparation AEQ (fmol/h/mg protein) (amyloid β peptide Aβ1-40): 1160 | 125I-Aβ1-40 hydrolyzing activity, specific activity, preparation MA1 (fmol/h/mg protein) (amyloid β peptide Aβ1-40): 380 | 125I-Aβ1-40 hydrolyzing activity, specific activity, preparation MA2 (fmol/h/mg protein) (amyloid β peptide Aβ1-40): 368 | 125I-Aβ40 hydrolysis, activity in the absence of a competitor peptide (amyloid β peptide Aβ1-40): 2590 cpm/hour | Km (amyloid β peptide Aβ1-40): 80 µM | kcat (amyloid β peptide Aβ1-40): 0.005 s⁻¹ | kcat/Km (amyloid β peptide Aβ1-40): 61.7 M⁻¹ s⁻¹

B2: scFv JL427 (scFv)
scFv: QSVLTQPPSVSGAPGQRVTISCSGSSSNFGLNYVYWYQHFPGTAPKLLIYRNDQRPLGVPARFSGSKSGTSASLAISGLRSEDEADYYCQSYDNSLSGWVFGGGTQLTVLGSSGGGGSGGGGSGGSALQVQLQQSGGGLVQPGRSLRLSCAASGFTFSSYGMHWVRQAPGKGLEWVSYIGRSGSHTNYADSVKGRFTISRDNSKNTLYLQINSLRAEDTAVYYCARGLPNYGMDIWGQGTTVTVSSGSASAPTLFPAAAHHHHHHGAAEQKLISEEDLNGAA
HIV neutralization IC50 [2]: 0.2 µg/mL
